In PMC9482650, “Quantitative fragmentomics allow affinity mapping of interactomes” (Nature Communications, 2022):

Columns and labels:
Test in all cases: holdup assay
Set-up in all cases: key: below the threshold = too weak to quantify, mostly under pKd 3.1 to 4
[1] = biological target: T1, LIN7A, O14910
T1 sequence (O14910 103-200, limits assumed, looked up): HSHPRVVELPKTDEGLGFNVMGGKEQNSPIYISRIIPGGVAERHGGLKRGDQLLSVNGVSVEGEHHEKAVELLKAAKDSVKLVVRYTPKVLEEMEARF

[2] = biological target: T2, MPDZ_10, O75970
T2 sequence (O75970 1624-1722, limits assumed, looked up): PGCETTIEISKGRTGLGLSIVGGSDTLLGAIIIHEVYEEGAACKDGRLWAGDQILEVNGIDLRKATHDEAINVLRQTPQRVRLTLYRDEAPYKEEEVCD

[3] = biological target: T3, APBA1_1, Q02410
T3 sequence (Q02410 651-752, limits assumed, looked up): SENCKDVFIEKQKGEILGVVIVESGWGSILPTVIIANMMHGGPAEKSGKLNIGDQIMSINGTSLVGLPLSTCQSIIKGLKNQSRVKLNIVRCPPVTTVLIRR

[4] = biological target: T4, PCLO, Q9Y6V0
T4 sequence (Q9Y6V0 4491-4600, limits assumed, looked up): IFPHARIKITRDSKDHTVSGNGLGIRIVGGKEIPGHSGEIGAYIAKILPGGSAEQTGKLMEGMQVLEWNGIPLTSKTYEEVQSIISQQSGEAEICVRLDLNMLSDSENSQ

[5] = biological target: TJP1_3, Q07157
[6] = biological target: T5, RADIL, Q96JH8
T5 sequence (Q96JH8 971-1071, limits assumed, looked up): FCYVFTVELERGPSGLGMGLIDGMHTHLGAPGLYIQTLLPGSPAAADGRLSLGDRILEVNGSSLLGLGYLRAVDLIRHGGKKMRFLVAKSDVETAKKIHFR

[7] = biological target: GOPC, Q9HD26
[8] = biological target: DLG1_1, Q12959
[9] = biological target: GRIP2_7, Q9C0E4
[10] = biological target: SCRIB_3, Q14160
[11] = biological target: GORASP2, Q9H8Y8
[12] = biological target: T6, NHERF3_1, Q5T2W1
T6 sequence (Q5T2W1 4-100, limits assumed, looked up): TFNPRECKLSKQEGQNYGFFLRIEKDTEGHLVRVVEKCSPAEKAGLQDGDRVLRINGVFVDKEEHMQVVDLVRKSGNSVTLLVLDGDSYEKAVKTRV

[13] = biological target: AHNAK1, Q09666
[14] = biological target: GIPC2, Q8TF65
[15] = biological target: Inadl_1, Q8NI35
[16] = biological target: LDB3, O75112
[17] = biological target: T7, TIAM2, Q8IVF5
T7 sequence (Q8IVF5 885-986, limits assumed, looked up): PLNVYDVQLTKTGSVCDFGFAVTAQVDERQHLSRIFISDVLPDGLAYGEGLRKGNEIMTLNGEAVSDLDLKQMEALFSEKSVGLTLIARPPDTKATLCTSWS

[18] = biological target: T8, GRIP1_2, Q9Y3R0
T8 sequence (Q9Y3R0 145-248, limits assumed, looked up): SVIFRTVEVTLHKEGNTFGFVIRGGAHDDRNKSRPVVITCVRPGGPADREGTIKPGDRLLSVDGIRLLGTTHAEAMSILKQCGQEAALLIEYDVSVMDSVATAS

[19] = biological target: T9, GRIP1_3, Q9Y3R0
T9 sequence (Q9Y3R0 247-346, limits assumed, looked up): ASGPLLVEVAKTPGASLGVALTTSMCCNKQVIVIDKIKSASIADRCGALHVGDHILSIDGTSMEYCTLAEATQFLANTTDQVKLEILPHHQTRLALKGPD

[20] = biological target: DLG1_3, Q12959
[21] = biological target: TJP1_2, Q07157
[22] = biological target: DLG2_3, Q15700
[23] = biological target: T10, GRIP1_7, Q9Y3R0
T10 sequence (Q9Y3R0 999-1096, limits assumed, looked up): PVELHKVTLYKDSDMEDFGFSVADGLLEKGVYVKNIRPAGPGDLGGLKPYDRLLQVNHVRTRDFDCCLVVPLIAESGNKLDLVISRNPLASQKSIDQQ

[24] = biological target: GRID2IP_1, A4D2P6
[25] = biological target: NHERF4_4, Q86UT5
[26] = biological target: DLG2_2, Q15700
[27] = biological target: MAGI2_3, Q86UL8
[28] = biological target: MAGI2_2, Q86UL8
[29] = plain residues with an end cap or a label only (N-terminal biotin on a linker: ado-ado)
[30] = plain residues with an end cap or a label only (N-terminal biotin on a linker: ahx)

Sequence of GIPC2, Q8TF65 (Q8TF65 112-203): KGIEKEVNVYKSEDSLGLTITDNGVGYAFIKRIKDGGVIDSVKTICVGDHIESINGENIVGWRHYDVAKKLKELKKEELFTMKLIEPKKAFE
Sequence of TJP1_3, Q07157 (Q07157 416-512): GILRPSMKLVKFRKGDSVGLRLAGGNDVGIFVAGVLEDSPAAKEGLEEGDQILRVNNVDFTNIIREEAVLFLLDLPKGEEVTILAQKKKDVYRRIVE
Sequence of AHNAK1, Q09666 (Q09666 4-100): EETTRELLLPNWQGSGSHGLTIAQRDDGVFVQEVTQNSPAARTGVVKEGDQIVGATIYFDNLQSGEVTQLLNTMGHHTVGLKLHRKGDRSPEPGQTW
Sequence of Inadl_1, Q8NI35 (Q8NI35 113-229): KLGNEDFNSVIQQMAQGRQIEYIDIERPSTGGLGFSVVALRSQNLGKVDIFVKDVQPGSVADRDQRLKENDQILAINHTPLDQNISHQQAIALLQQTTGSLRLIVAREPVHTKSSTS
Sequence of MAGI2_3, Q86UL8 (Q86UL8 600-682): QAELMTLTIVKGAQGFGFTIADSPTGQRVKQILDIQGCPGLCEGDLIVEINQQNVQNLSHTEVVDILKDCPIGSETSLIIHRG
Sequence of GRID2IP_1, A4D2P6 (A4D2P6 1-87): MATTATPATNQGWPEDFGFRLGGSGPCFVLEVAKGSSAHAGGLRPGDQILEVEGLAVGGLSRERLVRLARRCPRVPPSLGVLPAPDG
Sequence of LDB3, O75112 (O75112 1-94): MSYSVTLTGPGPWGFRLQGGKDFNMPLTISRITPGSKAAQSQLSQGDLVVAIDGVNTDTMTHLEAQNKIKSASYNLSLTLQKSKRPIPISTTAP
Sequence of NHERF4_4, Q86UT5 (Q86UT5 464-550): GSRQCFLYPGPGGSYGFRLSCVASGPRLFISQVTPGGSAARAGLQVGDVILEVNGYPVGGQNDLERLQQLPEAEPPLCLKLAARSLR
Sequence of GRIP2_7, Q9C0E4 (Q9C0E4 934-1023): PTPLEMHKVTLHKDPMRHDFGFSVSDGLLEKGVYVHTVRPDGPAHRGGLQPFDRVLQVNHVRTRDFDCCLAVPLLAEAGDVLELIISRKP
Sequence of TJP1_2, Q07157 (Q07157 181-274): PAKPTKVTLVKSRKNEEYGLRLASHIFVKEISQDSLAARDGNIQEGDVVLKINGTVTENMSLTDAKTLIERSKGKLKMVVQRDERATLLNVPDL
Sequence of MAGI2_2, Q86UL8 (Q86UL8 410-522): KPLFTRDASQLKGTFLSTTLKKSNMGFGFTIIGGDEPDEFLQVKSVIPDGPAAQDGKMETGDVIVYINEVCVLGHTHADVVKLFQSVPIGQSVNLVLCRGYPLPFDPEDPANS
Sequence of SCRIB_3, Q14160 (Q14160 999-1103): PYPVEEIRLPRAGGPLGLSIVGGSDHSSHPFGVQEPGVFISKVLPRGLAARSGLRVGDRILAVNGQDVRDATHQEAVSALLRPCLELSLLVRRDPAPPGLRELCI

B1: MYOT, Q9UBF9 (peptide)
chain: QSGLYESEEL
Question: Which results are given for B1?
Answer: pKd [1, 29]: below the threshold; pKd [2, 29]: below the threshold; pKd [3, 29]: below the threshold; pKd [4, 29]: below the threshold; pKd [5, 29]: below the threshold; pKd [6, 29]: below the threshold; pKd [7, 29]: below the threshold; pKd [8, 29]: below the threshold; pKd [9, 29]: below the threshold; pKd [10, 29]: below the threshold; pKd [11, 29]: below the threshold; pKd [12, 29]: 4.44; pKd [13, 29]: below the threshold; pKd [14, 29]: below the threshold; pKd [15, 29]: below the threshold; pKd [16, 29]: 5.2; pKd [17, 29]: 4.19; pKd [18, 29]: below the threshold; pKd [19, 29]: below the threshold; pKd [20, 29]: below the threshold; pKd [21, 29]: below the threshold; pKd [22, 29]: 3.88; pKd [23, 29]: below the threshold; pKd [24, 29]: below the threshold; pKd [25, 29]: below the threshold; pKd [26, 29]: below the threshold; pKd [27, 29]: below the threshold; pKd [28, 29]: 4.08

B2: OR8G1, Q15617 (peptide)
chain: KKMLQRRTLL
Question: With B2 as the binder, how does the pKd [1, 29] read?
Answer: below the threshold

Question: And the pKd [2, 29]?
Answer: below the threshold

Question: And the pKd [3, 29]?
Answer: below the threshold

Question: What about the pKd [4, 29] of the same binder?
Answer: below the threshold

Question: What about the pKd [5, 29] of the same binder?
Answer: below the threshold

Question: What about the pKd [6, 29] of the same binder?
Answer: 3.66

Question: And the pKd [7, 29]?
Answer: 3.89

Question: And the pKd [8, 29]?
Answer: below the threshold

Question: What about the pKd [9, 29] of the same binder?
Answer: below the threshold

Question: What about the pKd [10, 29] of the same binder?
Answer: 4.07

Question: What about the pKd [11, 29] of the same binder?
Answer: 3.8

Question: What about the pKd [12, 29] of the same binder?
Answer: 4.94

Question: And the pKd [13, 29]?
Answer: below the threshold

Question: What about the pKd [14, 29] of the same binder?
Answer: below the threshold

Question: And the pKd [15, 29]?
Answer: below the threshold

Question: And the pKd [16, 29]?
Answer: below the threshold

Question: And the pKd [17, 29]?
Answer: below the threshold

Question: What about the pKd [18, 29] of the same binder?
Answer: below the threshold

Question: What about the pKd [19, 29] of the same binder?
Answer: below the threshold

Question: What about the pKd [20, 29] of the same binder?
Answer: below the threshold

Question: What about the pKd [21, 29] of the same binder?
Answer: below the threshold

Question: And the pKd [22, 29]?
Answer: below the threshold

Question: What about the pKd [23, 29] of the same binder?
Answer: below the threshold

Question: And the pKd [24, 29]?
Answer: below the threshold

Question: And the pKd [25, 29]?
Answer: below the threshold

Question: And the pKd [26, 29]?
Answer: below the threshold

Question: What about the pKd [27, 29] of the same binder?
Answer: below the threshold

Question: What about the pKd [28, 29] of the same binder?
Answer: 4.44

B3: ACE2, Q9BYF1 (peptide)
chain: QNTDDVQTSF
Question: How did the pKd [1, 30] turn out when B3 was run?
Answer: below the threshold

Question: What about the pKd [2, 30] of the same binder?
Answer: below the threshold

Question: And the pKd [3, 30]?
Answer: below the threshold

Question: And the pKd [4, 30]?
Answer: below the threshold

Question: And the pKd [5, 30]?
Answer: below the threshold

Question: What about the pKd [6, 30] of the same binder?
Answer: below the threshold

Question: And the pKd [7, 30]?
Answer: below the threshold

Question: And the pKd [8, 30]?
Answer: below the threshold

Question: And the pKd [9, 30]?
Answer: below the threshold

Question: What about the pKd [10, 30] of the same binder?
Answer: below the threshold

Question: What about the pKd [11, 30] of the same binder?
Answer: below the threshold

Question: And the pKd [12, 30]?
Answer: 4.4

Question: And the pKd [13, 30]?
Answer: below the threshold

Question: And the pKd [14, 30]?
Answer: below the threshold

Question: And the pKd [15, 30]?
Answer: below the threshold

Question: And the pKd [16, 30]?
Answer: below the threshold

Question: And the pKd [17, 30]?
Answer: below the threshold

Question: What about the pKd [18, 30] of the same binder?
Answer: below the threshold

Question: What about the pKd [19, 30] of the same binder?
Answer: below the threshold

Question: What about the pKd [20, 30] of the same binder?
Answer: below the threshold

Question: What about the pKd [21, 30] of the same binder?
Answer: below the threshold

Question: And the pKd [22, 30]?
Answer: below the threshold

Question: What about the pKd [23, 30] of the same binder?
Answer: below the threshold

Question: And the pKd [24, 30]?
Answer: below the threshold

Question: And the pKd [25, 30]?
Answer: below the threshold

Question: What about the pKd [26, 30] of the same binder?
Answer: below the threshold

Question: And the pKd [27, 30]?
Answer: below the threshold

Question: What about the pKd [28, 30] of the same binder?
Answer: below the threshold
